# B1: Aptamer-N (Aptamer Np-48) (ssDNA)
# DNA: GCTGGATGTCGCTTACGACAATATTCCTTAGGGGCACCGCTACATTGACACATCCAGC
# modifications: 3' amino linker, coupled to PBASE-graphene
# B2: Aptamer-N (Aptamer Np-48) (ssDNA)
# DNA: B1 DNA
# B3: Aptamer-S (Aptamer 1C) (ssDNA)
# DNA: CAGCACCGACCTTGTGCTTTGGGAGTGCTGGTCCAAGGGCGTTAATGGACA
# Columns and labels:
# [1] = target: SARS-CoV-2 nucleocapsid (N) protein (SARS-CoV-2, UniProt P0DTC9 P0DTC9:1-419)
# [2] = target: SARS-CoV N protein (SARS-CoV, UniProt P59595 P59595:1-422)
# [3] = target: SARS-CoV-2 spike RBD (SARS-CoV-2, UniProt P0DTC2 P0DTC2:319-541)
# [4] = target: SARS-CoV spike RBD (SARS-CoV, UniProt P59594 P59594:306-527)
binder,measurement,setting,value
B1,binding result,[1],binds
B2,binding result,[2],binds
B3,binding result,[3],binds
same,binding result,[4],binds
